Experimental data published in PMC7956748 (2021).

Assays:
[1] = biological target: T1, transforming growth factor-beta 1 (TGF-β1) (UniProt P01137 279-390); assay: SPR
[2] = biological target: T1, transforming growth factor-beta 1 …; assay: SPR; remark: listed apart in the source

T1 sequence (P01137 279-390): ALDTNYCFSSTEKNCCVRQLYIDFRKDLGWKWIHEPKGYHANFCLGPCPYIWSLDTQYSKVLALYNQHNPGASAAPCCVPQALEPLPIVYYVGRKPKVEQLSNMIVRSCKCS

Binder | koff [1] [s⁻¹] | Kd [2] [nM]
thrombospondin-4 (TSP-4), recombinant full-length rat (natural protein) not shown | 0.000889 | 6.3
cartilage oligomeric matrix protein (COMP), recombinant full-length rat (natural protein) not shown | 0.000392 | 22.9
